According to patent publication US20090228996A1, “Means and Methods for influencing Interactions Between Dc-Sign and Dc-Sign Ligands” (priority 2006, published 2009):

How the values were obtained:
[1] = test system: DC-SIGN mediated transfer of HIV-1 by Raji-DC-SIGN cells to CD4+ T-lymphocytes; test: DC-SIGN mediated HIV-1 transfer assay (Raji-DC-SIGN transfer culture assay); format: cell-based; conditions: BSSL isolated from S4, at 30 μg/ml and 1.2 μg/ml; P<0.05
Method: DC-SIGN mediated HIV-1 transfer assay. The Raji and Raji-DC-SIGN cells were plated at a concentration of 2×10^4 cells/well in a 96 well format. Dilutions of human milk or human milk compounds were made in PBS containing 10% FCS and spiked with 3.7log TCID50/ml of the appropriate virus before addition to the Raji-DC-SIGN cells. As controls PBS containing 10% FCS was spiked with the same TCID50/ml of the corresponding virus before addition to Raji or Raji-DC-SIGN cells. After incubation the culture was washed with PBS before addition of CD4^+ enriched T-lymphocytes at a concentration of 1×10^5 cells/well with p24 determined on day 7. DC-SIGN specific antibody binding after exposure to human milk. […] The cells were washed and resuspended in 100 μl TSM containing 0.5% bovine serum albumin, (BSA Fraction V, Fatty Acid-Free) (Calbiochem) and the adhesion was measured by flow cytometry (BD Biosciences).
DC-SIGN mediated HIV-1 transfer assay. […] After a two hour incubation the culture was washed with PBS before addition of CD4^+ enriched T-lymphocytes at a concentration of 1×10^5 cells/well with p24 values determined on day 7.

DC-SIGN-Fc = target: T1, DC-SIGN-Fc (Homo sapiens, UniProt Q9NNX6); test: DC-SIGN-Fc binding ELISA
T1 construct: the extracellular portion of DC-SIGN (amino acids 64 to 404)
T1 sequence (Q9NNX6 64-404): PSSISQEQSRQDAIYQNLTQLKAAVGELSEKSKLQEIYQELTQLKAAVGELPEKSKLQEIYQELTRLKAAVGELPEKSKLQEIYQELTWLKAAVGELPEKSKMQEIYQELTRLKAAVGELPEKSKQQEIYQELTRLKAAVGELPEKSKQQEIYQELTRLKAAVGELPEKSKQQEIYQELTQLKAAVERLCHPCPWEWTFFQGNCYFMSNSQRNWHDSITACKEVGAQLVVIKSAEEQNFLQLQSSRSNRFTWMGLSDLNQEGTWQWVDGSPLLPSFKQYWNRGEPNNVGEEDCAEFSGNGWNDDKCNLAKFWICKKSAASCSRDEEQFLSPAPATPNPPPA
Method: DC-SIGN-Fc binding ELISA. The DC-SIGN-Fc chimera contained the extracellular portion of DC-SIGN (amino acids 64 to 404) fused at the C-terminus to a human immunoglobulin (Ig) G1 Fc fragment and has been previously described (Geijtenbeek et al, 2002). Human milk or human milk compounds were diluted in 0.2M NaHCO3, coated on ELISA plates (maxisorb plate; Nunc) and incubated overnight at 4° C. or 2 hours at 37° C. This was followed by blocking with TSM containing 1% BSA for 30 minutes at 37° C. before addition of soluble DC-SIGN-Fc (5 μg/ml) for 2 hours at RT, the binding was determined by incubation of a peroxidase labeled anti-IgG1 antibody for 30 minutes at RT. DC-SIGN-Fc binding specificity was determined by pre-incubation of the DC-SIGN-FC with either 50 μg/ml DC-SIGN specific mouse antibody AZN-D1 (Geijtenbeek et al, 2000 a) or 10 mM EGTA. Single-cycle-replication transmission assay. The assay was performed as previously described (Groot et al, 2005). In short mDCs and iDCs were incubated in a 96-well-plate (35−50×10^3 DC/well) with human milk for 30 minutes at 37° C. before addition of the virus (5 ng p24/well), which was incubated for 2 hours at 37° C. The DCs were washed twice with PBS before addition of 50×10^3 LuSIV cells. After 24 hours, LuSIV cells were harvested and resuspended in 50 μl lysis buffer (25 mM Tris-Cl 7.8, 2 mM DTT, 2 mM CDTA, 10% glycerol, 1% Triton X100). The cells were then incubated for 45 minutes at room temperature while shaking, followed by 10 minutes centrifugation at 3200×g. The supernatant was transferred to a white-solid 96 well plate (Corning Costar), and 150 μl of lucibuffer (100 μg/ml BSA, 6.6 mM ATP, 15 mM MgSO4, 25 mM glycylglycine) was added. 100 μl of DE(−)Luciferin (Roche Diagnostics GmbH) was injected per well (0.28 mg/ml lucibuffer excluding ATP). 50×10^3 LuSIV cells grown without DC or HIV-1 were used to obtain the background luciferase value.
DC-SIGN-Fc binding ELISA. The DC-SIGN-Fc chimera contained the extracellular portion of DC-SIGN (amino acids 64 to 404) fused at the C-terminus to a human immunoglobulin (Ig) G1 Fc fragment which has been previously described (Geijtenbeek et al, 2002). Human milk or BSSL were diluted in 0.2 M NaHCO3, coated on ELISA plates (maxisorb plate; Nunc) and incubated overnight at 4° C. or 2 hours at 37° C. This was followed by blocking with TSM containing 1% BSA for 30 minutes at 37° C. before addition of soluble DC-SIGN-Fc (5 μg/ml) for 2 hours at RT, the binding was determined by incubation of a peroxidase labeled anti-IgG1 antibody for 30 minutes at RT. DC-SIGN-Fc binding specificity was determined by pre-incubation of the DC-SIGN-Fc with either 50 μg/ml DC-SIGN specific mouse antibody AZN-D1 (Geijtenbeek et al, 2000 a) or 10 mM EGTA.

B1: BSSL: Bile salt stimulated lipase glycoprotein isolated from human milk (S4) (protein, UniProt P19835 21-753, looked up)
Bile salt-activated lipase: AKLGAVYTEGGFVEGVNKKLGLLGDSVDIFKGIPFAAPTKALENPQPHPGWQGTLKAKNFKKRCLQATITQDSTYGDEDCLYLNIWVPQGRKQVSRDLPVMIWIYGGAFLMGSGHGANFLNNYLYDGEEIATRGNVIVVTFNYRVGPLGFLSTGDANLPGNYGLRDQHMAIAWVKRNIAAFGGDPNNITLFGESAGGASVSLQTLSPYNKGLIRRAISQSGVALSPWVIQKNPLFWAKKVAEKVGCPVGDAARMAQCLKVTDPRALTLAYKVPLAGLEYPMLHYVGFVPVIDGDFIPADPINLYANAADIDYIAGTNNMDGHIFASIDMPAINKGNKKVTEEDFYKLVSEFTITKGLRGAKTTFDVYTESWAQDPSQENKKKTVVDFETDVLFLVPTEIALAQHRANAKSAKTYAYLFSHPSRMPVYPKWVGADHADDIQYVFGKPFATPTGYRPQDRTVSKAMIAYWTNFAKTGDPNMGDSAVPTHWEPYTTENSGYLEITKKMGSSSMKRSLRTNFLRYWTLTYLALPTVTDQEATPVPPTGDSEATPVPPTGDSETAPVPPTGDSGAPPVPPTGDSGAPPVPPTGDSGAPPVPPTGDSGAPPVPPTGDSGAPPVPPTGDSGAPPVPPTGDSGAPPVPPTGDSGAPPVPPTGDAGPPPVPPTGDSGAPPVPPTGDSGAPPVTPTGDSETAPVPPTGDSGAPPVPPTGDSEAAPVPPTDDSKEAQMPAVIRF
Question: B1 was tested. Which “inhibition of DC-SIGN mediated HIV-1 transfer” value [1] did it give?
Answer: significant inhibition

Question: And the DC-SIGN-Fc binding (DC-SIGN-Fc; BSSL at 30 μg/ml, 3 μg/ml and 0.3 μg/ml, P<0.01)?
Answer: binding

Question: And the “effect of trypsinization of purified BSSL” value (DC-SIGN-Fc; binding not fully alleviated, data not shown)?
Answer: trypsin sensitive

Question: What about the “effect of heat treatment of purified BSSL” value (DC-SIGN-Fc; data not shown) of the same molecule?
Answer: heat resistant
